One data set deals with T1, PFPQPQQPF peptide.
T1 chain: PFPQPQQPF

A further data set has as its target T2, PFPQPQLPY peptide.
T2 chain: PFPQPQLPY

B1: Kuma011-E269T (protein)
chain: AAPTAYTPLDVAQAYQFPEGLDGQGQCIAIIELGGGYDEASLAQYFASLGVPAPQVVSVSVDGASNQPTGDPKGPDGEVTLDIEVAGALAPGAKFAVYFAPDTTAGFLDAITTAIHDPTLKPSVVSISWSGPEDSWTSAAIAAMNRAFLDAAALGVTVLAAAGDSGSTGGEQDGLYHVHFPAASPYVLACGGTRLVASGGRIAQETVWNDGPDGGATGGGVSRIFPLPAWQEHANVPPSANPGASSGRGVPDLAGNADPATGYEVVIDGEATVIGGTSAVAPLFAALVARINQKLGKAVGYLNPTLYQLPADVFHDITEGNNDIANRAQIYQAGPGWDPCTGLGSPIGVRLLQALLPSASQPQ
B1: the “% Improvement on PFPQPQQPF (SEQ ID NO: 68)” value in the data set with PFPQPQQPF peptide was determined as 191%. Also, the “% Improvement on PFPQPQLPY (SEQ ID NO: 67)” value with PFPQPQLPY peptide was found to be 263%.

B2: Kuma011-S354Q (protein)
chain: AAPTAYTPLDVAQAYQFPEGLDGQGQCIAIIELGGGYDEASLAQYFASLGVPAPQVVSVSVDGASNQPTGDPKGPDGEVELDIEVAGALAPGAKFAVYFAPDTTAGFLDAITTAIHDPTLKPSVVSISWSGPEDSWTSAAIAAMNRAFLDAAALGVTVLAAAGDQGSTGGEQDGLYHVHFPAASPYVLACGGTRLVASGGRIAQETVWNDGPDGGATGGGVSRIFPLPAWQEHANVPPSANPGASSGRGVPDLAGNADPATGYEVVIDGEATVIGGTSAVAPLFAALVARINQKLGKAVGYLNPTLYQLPADVFHDITEGNNDIANRAQIYQAGPGWDPCTGLGSPIGVRLLQALLPSASQPQ
In the case of B2, in the data set with PFPQPQQPF peptide, the “% Improvement on PFPQPQQPF (SEQ ID NO: 68)” value stood at 141%. In addition, the “% Improvement on PFPQPQLPY (SEQ ID NO: 67)” value with PFPQPQLPY peptide was determined as 145%.

B3: Kuma011-L270V (protein)
chain: AAPTAYTPLDVAQAYQFPEGLDGQGQCIAIIELGGGYDEASLAQYFASLGVPAPQVVSVSVDGASNQPTGDPKGPDGEVEVDIEVAGALAPGAKFAVYFAPDTTAGFLDAITTAIHDPTLKPSVVSISWSGPEDSWTSAAIAAMNRAFLDAAALGVTVLAAAGDSGSTGGEQDGLYHVHFPAASPYVLACGGTRLVASGGRIAQETVWNDGPDGGATGGGVSRIFPLPAWQEHANVPPSANPGASSGRGVPDLAGNADPATGYEVVIDGEATVIGGTSAVAPLFAALVARINQKLGKAVGYLNPTLYQLPADVFHDITEGNNDIANRAQIYQAGPGWDPCTGLGSPIGVRLLQALLPSASQPQ
Turning to B3, the “% Improvement on PFPQPQQPF (SEQ ID NO: 68)” value in the data set with PFPQPQQPF peptide is reported as 61%. For the same protein, the “% Improvement on PFPQPQLPY (SEQ ID NO: 67)” value with PFPQPQLPY peptide amounted to 474%.

B4: Kuma011-L270A (protein)
chain: AAPTAYTPLDVAQAYQFPEGLDGQGQCIAIIELGGGYDEASLAQYFASLGVPAPQVVSVSVDGASNQPTGDPKGPDGEVEADIEVAGALAPGAKFAVYFAPDTTAGFLDAITTAIHDPTLKPSVVSISWSGPEDSWTSAAIAAMNRAFLDAAALGVTVLAAAGDSGSTGGEQDGLYHVHFPAASPYVLACGGTRLVASGGRIAQETVWNDGPDGGATGGGVSRIFPLPAWQEHANVPPSANPGASSGRGVPDLAGNADPATGYEVVIDGEATVIGGTSAVAPLFAALVARINQKLGKAVGYLNPTLYQLPADVFHDITEGNNDIANRAQIYQAGPGWDPCTGLGSPIGVRLLQALLPSASQPQ
On to B4, for which the “% Improvement on PFPQPQQPF (SEQ ID NO: 68)” value with PFPQPQQPF peptide is recorded as 92%. The “% Improvement on PFPQPQLPY (SEQ ID NO: 67)” value with PFPQPQLPY peptide is listed as 203%.

B5: Kuma011-S354Y (protein)
chain: AAPTAYTPLDVAQAYQFPEGLDGQGQCIAIIELGGGYDEASLAQYFASLGVPAPQVVSVSVDGASNQPTGDPKGPDGEVELDIEVAGALAPGAKFAVYFAPDTTAGFLDAITTAIHDPTLKPSVVSISWSGPEDSWTSAAIAAMNRAFLDAAALGVTVLAAAGDYGSTGGEQDGLYHVHFPAASPYVLACGGTRLVASGGRIAQETVWNDGPDGGATGGGVSRIFPLPAWQEHANVPPSANPGASSGRGVPDLAGNADPATGYEVVIDGEATVIGGTSAVAPLFAALVARINQKLGKAVGYLNPTLYQLPADVFHDITEGNNDIANRAQIYQAGPGWDPCTGLGSPIGVRLLQALLPSASQPQ
Regarding B5, the “% Improvement on PFPQPQQPF (SEQ ID NO: 68)” value with PFPQPQQPF peptide amounted to 105%. Also, the “% Improvement on PFPQPQLPY (SEQ ID NO: 67)” value in the data set with PFPQPQLPY peptide is reported as 46%.

B6: Kuma011-G358N (protein)
chain: AAPTAYTPLDVAQAYQFPEGLDGQGQCIAIIELGGGYDEASLAQYFASLGVPAPQVVSVSVDGASNQPTGDPKGPDGEVELDIEVAGALAPGAKFAVYFAPDTTAGFLDAITTAIHDPTLKPSVVSISWSGPEDSWTSAAIAAMNRAFLDAAALGVTVLAAAGDSGSTNGEQDGLYHVHFPAASPYVLACGGTRLVASGGRIAQETVWNDGPDGGATGGGVSRIFPLPAWQEHANVPPSANPGASSGRGVPDLAGNADPATGYEVVIDGEATVIGGTSAVAPLFAALVARINQKLGKAVGYLNPTLYQLPADVFHDITEGNNDIANRAQIYQAGPGWDPCTGLGSPIGVRLLQALLPSASQPQ
With B6, the “% Improvement on PFPQPQQPF (SEQ ID NO: 68)” value with PFPQPQQPF peptide worked out at 99%. For the same protein, in the data set with PFPQPQLPY peptide, the “% Improvement on PFPQPQLPY (SEQ ID NO: 67)” value stood at 120%.

B7: Kuma011-L270T (protein)
chain: AAPTAYTPLDVAQAYQFPEGLDGQGQCIAIIELGGGYDEASLAQYFASLGVPAPQVVSVSVDGASNQPTGDPKGPDGEVETDIEVAGALAPGAKFAVYFAPDTTAGFLDAITTAIHDPTLKPSVVSISWSGPEDSWTSAAIAAMNRAFLDAAALGVTVLAAAGDSGSTGGEQDGLYHVHFPAASPYVLACGGTRLVASGGRIAQETVWNDGPDGGATGGGVSRIFPLPAWQEHANVPPSANPGASSGRGVPDLAGNADPATGYEVVIDGEATVIGGTSAVAPLFAALVARINQKLGKAVGYLNPTLYQLPADVFHDITEGNNDIANRAQIYQAGPGWDPCTGLGSPIGVRLLQALLPSASQPQ
On to B7, for which the “% Improvement on PFPQPQQPF (SEQ ID NO: 68)” value with PFPQPQQPF peptide stood at 29%. The “% Improvement on PFPQPQLPY (SEQ ID NO: 67)” value with PFPQPQLPY peptide amounted to 307%.

B8: Kuma011-S354R (protein)
chain: AAPTAYTPLDVAQAYQFPEGLDGQGQCIAIIELGGGYDEASLAQYFASLGVPAPQVVSVSVDGASNQPTGDPKGPDGEVELDIEVAGALAPGAKFAVYFAPDTTAGFLDAITTAIHDPTLKPSVVSISWSGPEDSWTSAAIAAMNRAFLDAAALGVTVLAAAGDRGSTGGEQDGLYHVHFPAASPYVLACGGTRLVASGGRIAQETVWNDGPDGGATGGGVSRIFPLPAWQEHANVPPSANPGASSGRGVPDLAGNADPATGYEVVIDGEATVIGGTSAVAPLFAALVARINQKLGKAVGYLNPTLYQLPADVFHDITEGNNDIANRAQIYQAGPGWDPCTGLGSPIGVRLLQALLPSASQPQ
B8: the “% Improvement on PFPQPQQPF (SEQ ID NO: 68)” value with PFPQPQQPF peptide was determined as 82%. In addition, the “% Improvement on PFPQPQLPY (SEQ ID NO: 67)” value in the data set with PFPQPQLPY peptide worked out at 109%.

B9: Kuma011-G358S (protein)
chain: AAPTAYTPLDVAQAYQFPEGLDGQGQCIAIIELGGGYDEASLAQYFASLGVPAPQVVSVSVDGASNQPTGDPKGPDGEVELDIEVAGALAPGAKFAVYFAPDTTAGFLDAITTAIHDPTLKPSVVSISWSGPEDSWTSAAIAAMNRAFLDAAALGVTVLAAAGDSGSTSGEQDGLYHVHFPAASPYVLACGGTRLVASGGRIAQETVWNDGPDGGATGGGVSRIFPLPAWQEHANVPPSANPGASSGRGVPDLAGNADPATGYEVVIDGEATVIGGTSAVAPLFAALVARINQKLGKAVGYLNPTLYQLPADVFHDITEGNNDIANRAQIYQAGPGWDPCTGLGSPIGVRLLQALLPSASQPQ
For B9, in the data set with PFPQPQQPF peptide, the “% Improvement on PFPQPQQPF (SEQ ID NO: 68)” value came to 224%. Also, the “% Improvement on PFPQPQLPY (SEQ ID NO: 67)” value in the data set with PFPQPQLPY peptide stood at 331%.

B10: Kuma011-S354E (protein)
chain: AAPTAYTPLDVAQAYQFPEGLDGQGQCIAIIELGGGYDEASLAQYFASLGVPAPQVVSVSVDGASNQPTGDPKGPDGEVELDIEVAGALAPGAKFAVYFAPDTTAGFLDAITTAIHDPTLKPSVVSISWSGPEDSWTSAAIAAMNRAFLDAAALGVTVLAAAGDEGSTGGEQDGLYHVHFPAASPYVLACGGTRLVASGGRIAQETVWNDGPDGGATGGGVSRIFPLPAWQEHANVPPSANPGASSGRGVPDLAGNADPATGYEVVIDGEATVIGGTSAVAPLFAALVARINQKLGKAVGYLNPTLYQLPADVFHDITEGNNDIANRAQIYQAGPGWDPCTGLGSPIGVRLLQALLPSASQPQ
For the protein B10, the “% Improvement on PFPQPQQPF (SEQ ID NO: 68)” value with PFPQPQQPF peptide is 120%. Further, the “% Improvement on PFPQPQLPY (SEQ ID NO: 67)” value with PFPQPQLPY peptide was determined as 124%.

B11: Kuma011-G358Q (protein)
chain: AAPTAYTPLDVAQAYQFPEGLDGQGQCIAIIELGGGYDEASLAQYFASLGVPAPQVVSVSVDGASNQPTGDPKGPDGEVELDIEVAGALAPGAKFAVYFAPDTTAGFLDAITTAIHDPTLKPSVVSISWSGPEDSWTSAAIAAMNRAFLDAAALGVTVLAAAGDSGSTQGEQDGLYHVHFPAASPYVLACGGTRLVASGGRIAQETVWNDGPDGGATGGGVSRIFPLPAWQEHANVPPSANPGASSGRGVPDLAGNADPATGYEVVIDGEATVIGGTSAVAPLFAALVARINQKLGKAVGYLNPTLYQLPADVFHDITEGNNDIANRAQIYQAGPGWDPCTGLGSPIGVRLLQALLPSASQPQ
Take B11: the “% Improvement on PFPQPQQPF (SEQ ID NO: 68)” value with PFPQPQQPF peptide was determined as 149%. Also, the “% Improvement on PFPQPQLPY (SEQ ID NO: 67)” value with PFPQPQLPY peptide is listed as 147%.

B12: Kuma010/011 S319A (protein)
chain: AAPTAYTPLDVAQAYQFPEGLDGQGQCIAIIELGGGYDEASLAQYFASLGVPAPQVVSVSVDGASNQPTGDPKGPDGEVELDIEVAGALAPGAKFAVYFAPDTTAGFLDAITTAIHDPTLKPSVVSISWAGPEDSWTSAAIAAMNRAFLDAAALGVTVLAAAGDSGSTGGEQDGLYHVHFPAASPYVLACGGTRLVASGGRIAQETVWNDGPDGGATGGGVSRIFPLPAWQEHANVPPSANPGASSGRGVPDLAGNADPATGYEVVIDGEATVIGGTSAVAPLFAALVARINQKLGKAVGYLNPTLYQLPADVFHDITEGNNDIANRAQIYQAGPGWDPCTGLGSPIGVRLLQALLPSASQPQ
Consider B12, for which, in the data set with PFPQPQQPF peptide, the “% Improvement on PFPQPQQPF (SEQ ID NO: 68)” value came out at 184%. In the data set with PFPQPQLPY peptide, the “% Improvement on PFPQPQLPY (SEQ ID NO: 67)” value was determined as 154%.

B13: Kuma011-S354A (protein)
chain: AAPTAYTPLDVAQAYQFPEGLDGQGQCIAIIELGGGYDEASLAQYFASLGVPAPQVVSVSVDGASNQPTGDPKGPDGEVELDIEVAGALAPGAKFAVYFAPDTTAGFLDAITTAIHDPTLKPSVVSISWSGPEDSWTSAAIAAMNRAFLDAAALGVTVLAAAGDAGSTGGEQDGLYHVHFPAASPYVLACGGTRLVASGGRIAQETVWNDGPDGGATGGGVSRIFPLPAWQEHANVPPSANPGASSGRGVPDLAGNADPATGYEVVIDGEATVIGGTSAVAPLFAALVARINQKLGKAVGYLNPTLYQLPADVFHDITEGNNDIANRAQIYQAGPGWDPCTGLGSPIGVRLLQALLPSASQPQ
B13: in the data set with PFPQPQQPF peptide, the “% Improvement on PFPQPQQPF (SEQ ID NO: 68)” value worked out at 140%. Moreover, in the data set with PFPQPQLPY peptide, the “% Improvement on PFPQPQLPY (SEQ ID NO: 67)” value was determined as 152%.

(Values after US20180142226.)
